Source: patent US20210063414A1 (Dana-Farber, published 2021)

What was measured:
[1] = target: T1, Integrin beta-1 (Itgb1) of MLO-Y4 cells (mouse, UniProt P09055 21-798); assay: DTSSP cross-linking on MLO-Y4 cells, his-tag pull-down, TMT mass spectrometry; irisin channel
T1 construct: whole, on cells; Endogenous protein of the mouse osteocyte-like cell line, cross-linked on intact cells; also called β1 integrin; integrin β1
Experimental: (§1) Cells were homogenized and immunoprecipitated using 6 his-tag agarose after treatment of DTSSP cross-linker. Immunoprecipitated proteins were labeled with TMT and analyzed by mass spectrometer.
(§2) A chemical cross-linker was then added and incubated with cells, and the ligands were re-purified with (presumptive) cellular proteins covalently attached. The cross-links were then reversed and the products were subjected to quantitative Mass Spectrometry (FIG. 2A).

[2] = target: T2, Integrin beta-5 (Itgb5) of MLO-Y4 cells (mouse, UniProt O70309 24-798); assay: as above
T2 construct: whole, on cells; also called ITB5_MOUSE
T2 sequence (looked up): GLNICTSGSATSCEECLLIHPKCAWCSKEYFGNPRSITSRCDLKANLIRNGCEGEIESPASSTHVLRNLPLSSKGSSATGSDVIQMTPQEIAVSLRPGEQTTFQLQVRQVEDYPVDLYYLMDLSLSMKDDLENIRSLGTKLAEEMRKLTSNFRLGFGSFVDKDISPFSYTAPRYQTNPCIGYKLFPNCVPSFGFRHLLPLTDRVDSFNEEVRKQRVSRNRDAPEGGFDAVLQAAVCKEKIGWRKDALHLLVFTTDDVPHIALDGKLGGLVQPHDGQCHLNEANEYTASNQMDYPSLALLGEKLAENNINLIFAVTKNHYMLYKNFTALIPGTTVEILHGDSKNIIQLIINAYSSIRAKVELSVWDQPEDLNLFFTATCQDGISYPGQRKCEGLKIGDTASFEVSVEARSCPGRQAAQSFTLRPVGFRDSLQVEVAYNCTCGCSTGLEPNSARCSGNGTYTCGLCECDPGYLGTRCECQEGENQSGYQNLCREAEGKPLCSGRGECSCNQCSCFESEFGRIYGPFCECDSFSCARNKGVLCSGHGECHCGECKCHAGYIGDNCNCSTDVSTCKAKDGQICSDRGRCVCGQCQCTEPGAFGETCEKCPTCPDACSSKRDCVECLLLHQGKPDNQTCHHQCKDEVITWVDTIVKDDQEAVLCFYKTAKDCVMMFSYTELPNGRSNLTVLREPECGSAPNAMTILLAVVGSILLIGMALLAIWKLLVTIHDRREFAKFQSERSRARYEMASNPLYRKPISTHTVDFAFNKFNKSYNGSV
Experimental: as §1, §2

[3] = target: T3, Integrin alpha-V (Itgav) of MLO-Y4 cells (mouse, UniProt P43406 31-1044); assay: as above
T3 construct: whole, on cells
T3 sequence (looked up): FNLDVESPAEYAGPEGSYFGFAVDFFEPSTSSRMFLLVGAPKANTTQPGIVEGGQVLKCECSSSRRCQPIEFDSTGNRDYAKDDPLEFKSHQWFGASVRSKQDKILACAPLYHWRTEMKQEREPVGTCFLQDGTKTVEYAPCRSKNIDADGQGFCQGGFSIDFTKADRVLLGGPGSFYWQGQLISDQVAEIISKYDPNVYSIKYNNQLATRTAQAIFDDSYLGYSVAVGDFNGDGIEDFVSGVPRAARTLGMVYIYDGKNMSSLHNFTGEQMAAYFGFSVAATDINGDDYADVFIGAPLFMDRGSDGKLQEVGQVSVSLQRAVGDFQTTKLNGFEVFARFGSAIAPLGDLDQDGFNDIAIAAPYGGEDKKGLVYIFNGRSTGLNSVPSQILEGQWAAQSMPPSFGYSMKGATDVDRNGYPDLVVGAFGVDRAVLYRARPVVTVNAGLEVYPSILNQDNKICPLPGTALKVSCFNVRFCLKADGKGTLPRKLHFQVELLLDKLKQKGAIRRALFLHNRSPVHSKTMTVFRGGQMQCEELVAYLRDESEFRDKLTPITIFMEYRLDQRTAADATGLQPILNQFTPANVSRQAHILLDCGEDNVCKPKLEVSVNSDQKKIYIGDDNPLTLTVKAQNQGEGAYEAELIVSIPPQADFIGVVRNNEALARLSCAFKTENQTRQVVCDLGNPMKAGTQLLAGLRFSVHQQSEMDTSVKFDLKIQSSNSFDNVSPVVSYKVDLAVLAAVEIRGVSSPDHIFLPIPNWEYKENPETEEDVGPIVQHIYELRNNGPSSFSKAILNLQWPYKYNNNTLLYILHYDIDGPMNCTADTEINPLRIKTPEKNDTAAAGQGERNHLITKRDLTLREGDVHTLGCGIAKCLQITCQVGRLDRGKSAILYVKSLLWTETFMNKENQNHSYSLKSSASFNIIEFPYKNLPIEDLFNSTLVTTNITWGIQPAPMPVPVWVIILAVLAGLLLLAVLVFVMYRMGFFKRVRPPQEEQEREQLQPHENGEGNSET
Experimental: as §1, §2

[4] = target: T2, Integrin beta-5 (Itgb5) of MLO-Y4 cells; assay: DTSSP cross-linking on MLO-Y4 cells, his-tag pull-down, TMT mass spectrometry; ratio to his-tag adipsin control
Experimental: as §1, §2

[5] = target: T3, Integrin alpha-V (Itgav) of MLO-Y4 cells; assay: as above
Experimental: as §1, §2

[6] = target: T1, Integrin beta-1 (Itgb1) of MLO-Y4 cells; assay: DTSSP cross-linking of his-tag ligand on MLO-Y4 cells, his-tag pull-down, TMT quantitative mass spectrometry; ratio to his-tag adipsin control
Experimental: as §1, §2

T1 sequence (P09055 21-798): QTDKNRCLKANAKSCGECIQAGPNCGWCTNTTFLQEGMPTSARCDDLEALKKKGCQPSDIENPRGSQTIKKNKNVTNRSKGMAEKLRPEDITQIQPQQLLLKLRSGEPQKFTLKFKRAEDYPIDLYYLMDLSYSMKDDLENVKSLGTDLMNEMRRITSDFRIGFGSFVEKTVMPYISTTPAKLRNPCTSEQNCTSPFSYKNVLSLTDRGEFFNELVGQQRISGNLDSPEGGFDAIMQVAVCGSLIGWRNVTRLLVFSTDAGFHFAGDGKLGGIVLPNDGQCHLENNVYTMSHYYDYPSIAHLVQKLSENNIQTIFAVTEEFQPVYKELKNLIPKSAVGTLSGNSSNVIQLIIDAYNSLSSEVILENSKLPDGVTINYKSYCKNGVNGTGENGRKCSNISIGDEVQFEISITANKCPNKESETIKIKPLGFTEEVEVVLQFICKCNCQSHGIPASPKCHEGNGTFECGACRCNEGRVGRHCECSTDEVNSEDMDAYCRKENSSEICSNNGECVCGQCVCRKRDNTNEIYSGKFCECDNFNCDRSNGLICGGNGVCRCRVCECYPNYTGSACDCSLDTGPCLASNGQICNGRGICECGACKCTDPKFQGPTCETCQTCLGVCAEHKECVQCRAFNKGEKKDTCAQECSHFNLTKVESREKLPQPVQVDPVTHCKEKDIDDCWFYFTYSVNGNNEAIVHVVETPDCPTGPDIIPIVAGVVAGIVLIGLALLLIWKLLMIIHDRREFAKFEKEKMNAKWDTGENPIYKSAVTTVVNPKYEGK

B1: His-tag recombinant irisin (irisin (human/mouse) with a C-terminal 10 his tag, produced in HEK293 cells) (ligand)
chain: DSPSAPVNVTVRHLKANSAVVSWDVLEDEVVIGFAISQQKKDVRMLRFIQEVNTTTRSCALWDLEEDTEYIVHVQAISIQGQSPASEPVLFKTPREAEKMASKNKDEVTMKE
notes: Made in mammalian cells, glycosylated; Used in cell culture and cross-linking experiments; also called 10 His-tag irisin; his-tag irisin; not shown: C-terminal 10 his tag
- summed signal-to-noise value for TMT channel [1]: 858
- summed signal-to-noise value for TMT channel [2]: 215
- summed signal-to-noise value for TMT channel [3]: 60.6
- irisin/adipsin (TMT ratio) [4]: 1.45
- irisin/adipsin (TMT ratio) [5]: 1.11
- irsin/adipsin (TMT ratio) [6]: 3.44
